US20020009436A1, “Methods and compositions for inhibiting adhesion by microorganisms” (priority 1999, published 2002)

Assays:
[1] = tested on: S. sobrinus 6715 glucan-binding lectin; assay: Aggregation of S. sobrinus with high molecular weight dextran T-2000 (standard rate assay); assay type: cell-based, Streptococcus sobrinus; settings: cells treated with asparaginase
Method: S. sobrinus 6715 was maintained on tryptic soy agar (Difco, Detroit, Mich.) and grown for experiments in Terleckyj's defined medium or tryptic soy broth (TSB) (Difco) pretreated with dextranase (1 mg of enzyme per g dry medium) and invertase (5 mg per g dry medium) for 2 h each in 5% CO2 at 37° C. for 16-18h. Cultures were centrifuged at 12,000×g for 10 min and washed twice with cold phosphate buffered saline (PBS, 20 mM, pH 7.2). Cells were suspended in PBS to an optical density of 0.8 (A540). Cultures grown in TSB were harvested and suspended in PBS and subsequently treated with dextranase for 1 h, followed by washing two times in PBS.
The standard rate assay published by Drake et al. (Drake D. et al. Infect. Immun. 56:1864-1872 (1988)) was used to study the interaction of S. sobrinus 6715 glucan-binding lectin with high molecular weight dextran. Briefly, bacterial suspensions were adjusted to an optical density of 0.75-0.90 in PBS, and 3-ml suspensions were added to test tubes (13×100 mm). Dextran T-2000 was added at a final concentration of 10 1μg/ml and the suspensions were vortexed for 5 sec. Control tubes received PBS. The decrease in optical density was continuously monitored spectrophotometrically for 5 min. Rate constants were obtained from the slopes of first-order plots of ln A/A0 (A=observed optical density; A0 optical density at time zero) versus time in minutes. […]

[2] = tested on: F. nucleatum (adhesin) / A. actinomycetemcomitans (receptor); assay: Coaggregation F. nucleatum / A. actinomycetemcomitans; settings: polyphenol oxidase 90 U/ml, asparaginase 20 U/ml
Method: (§2) S. sanguis 10556, A. naeslundii strains 12104 and T14V and E. coli were grown static cultures in Todd-Hewitt broth (BBL Microbiology Systems, Cockeysville, Md.). P. gingivalis W50, A. actinomycetemcomitans and C. ochracea were grown in brain heart infusion broth (BBL). F. nucleatum 22586 and P. intermedia 25611 were grown in modified Schaedler broth (BBL). All oral species except S. sanguis 10556 were incubated at 37° C. as static cultures under an anaerobic atmosphere containing H2, CO2 and N2(10:10:80) with GasPaks (BBL). S. sanguis was incubated at 37° C. as static cultures in 5% CO2.
(§3) Bacteria were harvested in the mid to late exponential growth phase by centrifugation (10,000×g for 10 min at 4° C.). The cells were washed twice in coaggregation buffer (30 mM 3-[N-morpholino]propanesulfonic acid (MOPS), pH 7.0) and adjusted to an optical density of 0.6-0.8 at 540 nm (1-cm path). […]
(§4) Coaggregation was assessed by turbidity changes. Following mixing of the cells for 10 s on a Vortex mixer, absorbance readings were made every 30 min. The percentage of coaggregation was calculated from the following formula: Percent coaggregation=[OD540(A)+OD540(B)−OD540(A+B)]/(OD540(A)+OD540(B)), where A is the control containing cells of one strain, B is the control containing cells of the other strain, and A+B is the reaction mixture containing both cells. […]

[3] = tested on: E. coli possessing type 1 fimbriae; assay: Adhesion of E. coli to a mannose receptor; assay type: cell-based; settings: E. coli treated with asparaginase versus untreated cells
Method: Materials and methods were generally as described in the Examples above, but modified for observing adhesion by E. coli to a mannose receptor. […] The E. coli were then incubated with a source of mannose receptor.

Candida albicans = assay: Adhesion of Candida albicans to buccal cells; assay type: cell-based; settings: 37° C. 60 min, ave ±SE, 5 runs
S. pyogenes [4] = assay: Collagen binding assay, S. pyogenes; assay type: cell-based
Method: (§1) Wells were filled with 1 mg/ml soluble collagen overnight at 4° C. Control wells were coated with 1% BSA. The protein solutions were removed and permitted to stand at 37° C. for 1 h. A solution of 2% BSA was added to the wells to block unoccupied sites and prevent non-specific binding of bacteria. After 30 min, BSA was removed and the wells were washed once with distilled water. Finally, the bacterial suspensions (100 μl, OD 1.4) were added to the plates and incubated at 37° C. for 2 h. Unbound bacteria were removed by washing the wells three times with PBS containing 0.01% Tween 20. The wells were dried at 37° C. for 30 min and stained with crystal violet for 15 min. Wells were rinsed with distilled water and dried at 37° C. for 2 h. After adding 100 μl of 95% (v/v) ethanol to each well the plates were then shaken to release the stain and a reading of 550 nm was carried out.

S. pneumoniae = assay: Adhesion of pneumococci to buccal cells; assay type: cell-based; settings: strain 6303
Method: Methods for handling polyphenol oxidase and asparaginase and for observing adhesion by microorganisms were generally as described in the previous Examples with variations to adapt these methods to these bacteria and to buccal cells. In particular, adhesion was measured in a manner similar to that just described for S. pyogenes.

[5] = tested on: P. gingivalis W50 (adhesin) / A. naeslundii T14V (receptor); assay: Coaggregation P. gingivalis W50 / A. naeslundii T14V; settings: P. gingivalis W50 (adhesin) enzyme treated; polyphenol oxidase 90 U/ml, asparaginase 20 U/ml
Method: as §2, §3, §4

Bacillus cereus = assay: Growth inhibition of Bacillus cereus; assay type: cell-based
S. pyogenes [6] = assay: Adhesion of S. pyogenes to buccal epithelial cells (coaggregation slides); assay type: cell-based, Streptococcus pyogenes
Method: This experiment began with growing and harvesting of five strains of S. pyogenes, including M14 Lowe, YL3, M24 and T2/MR. The strains were grown in BHI broth in a 37 degree incubator overnight. The cultures were grown under static conditions. The cells were then harvested by washing twice with phosphate buffer (pH=7). Treatment of the cells with polyphenol oxidase and asparaginase began with finding the optical density of the stock solution of harvested cells. This was done using a spectrophotometer. Each strain was treated with two concentrations of polyphenol oxidase (100 μg/OD and 300 μg/OD) and one concentration of asparaginase (300 μg/OD). The treatment of the cells with polyphenol oxidase took place in the 37 degree incubator for 1.5 hours. The cells were then washed twice with phosphate buffer (pH 7). At this time, a coaggregation was made and allowed to set at static conditions for two hours. Slides were then made of each coaggregation.
The treatment of the cells with asparaginase also took place in the 37 degree incubator for three hours. Before treatment, the cells were washed twice with phosphate buffer of pH=8. After treatment, they were washed twice with phosphate buffer of pH=7. Coaggregations and slides were then made as for polyphenol oxidase.
The buccal cells were harvested from the inner cheeks using cotton swabs. […]

[7] = tested on: S. epidermidis (clinical isolate); assay: Collagen binding assay, S. epidermidis; assay type: cell-based; settings: untreated 0.09
Method: as §1

Influenza A strain H1N1 = assay: Hemagglutination of chicken erythrocytes by influenza virus; assay type: cell-based; settings: polyphenol oxidase 70 U/ml or asparaginase 10 U/ml; untreated 256

B1: asparaginase: enzyme that catalyzes hydrolysis of the side chain amide group of asparagine to a carboxyl group; E. coli asparaginase (protein, UniProt P00805 23-348, looked up)
L-asparaginase 2: LPNITILATGGTIAGGGDSATKSNYTVGKVGVENLVNAVPQLKDIANVKGEQVVNIGSQDMNDNVWLTLAKKINTDCDKTDGFVITHGTDTMEETAYFLDLTVKCDKPVVMVGAMRPSTSMSADGPFNLYNAVVTAADKASANRGVLVVMNDTVLDGRDVTKTNTTDVATFKSVNYGPLGYIHNGKIDYQRTPARKHTSDTPFDVSKLNELPKVGIVYNYANASDLPAKALVDAGYDGIVSAGVGNGNLYKSVFDTLATAAKTGTAVVRSSRVPTGATTQDAEVDDAKYGFVASGTLNPQKARVLLQLALTQTKDPQQIQQIFNQY
ability of cells to aggregate high molecular weight dextrans [1]: reduced | Inhibition % of coaggregation ([2]; A. actinomycetemcomitans (receptor) enzyme treated): 40% | Inhibition % of coaggregation ([2]; F. nucleatum (adhesin) enzyme treated): 23% | binding to the mannose receptor [3]: reduced binding | Candida/buccal cell (Candida albicans; cells, 20 U/ml, control 9.0 ± 3.5): 7.0 ± 2 | Candida/buccal cell (Candida albicans; cells, 60 U/ml, control 9.0 ± 3.5): 4.5 ± 1.5 | Candida/buccal cell (Candida albicans; hyphae, 20 U/ml, control 5.1 ± 3.1): 3.1 ± 2.0 | Candida/buccal cell (Candida albicans; hyphae, 60 U/ml, control 5.1 ± 3.1): 1.3 ± 1.2 | Absorbance (collagen) (S. pyogenes [4]; S. pyogenes M4, untreated 0.19): 0.10 | Absorbance (collagen) (S. pyogenes [4]; S. pyogenes M24, untreated 0.31): 0.13 | adhesion of S. pneumoniae to buccal cells (S. pneumoniae): able to reduce adhesion | Inhibition % of coaggregation [5]: i 31% | inhibition of growth of Bacillus cereus (Bacillus cereus): did not significantly inhibit growth | binding of bacteria to buccal cells (S. pyogenes [6]; asparaginase 300 μg/OD, three hours): reduced binding | reduction in adhesion compared with polyphenol oxidase (S. pyogenes [6]; equivalent amount): greater reduction in adhesion than an equivalent amount of polyphenol oxidase | Absorbance (collagen) [7]: 0.05 | Hemagglutination Titers, Dilution of Virus + RBCs (fold) (Influenza A strain H1N1): 64 fold
